Test results reported in the supplement of paper PMC10567573.

B1: NET1 (parent)
chain: PTPAKRRSSALWSEMLDITMKESL
B2: MYBL2 (parent)
chain: IAKHLKGRLGKQCRERWHNHLNPE

Variants of: B1
Test: protein stability index of a GFP-peptide fusion (GPS, HEK-293T) (PSI 1-6); higher = more stable
Details: c terminus: a fixed tail appended
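Note: lentivirally expressed fusions sorted by FACS into six bins by GFP to DsRed ratio, PSI derived from sequencing read proportions per bin multiplied by bin number.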

Protein stability index of substitutions, site by site:
S9: G 2.79 | V 1.88 | T 1.57 | A 2.2 | C 1.47 | E 2.4 | K 1.64 | F 2.05 | I 1.86 | N 2.21 | Q 2.34
M15: K 2.82 | G 3.83 | P 4.32 | W 2.05 | I 2.07 | N 3.13 | L 2.91 | V 2.9 | F 2.04 | D 3.91 | C 2.38 | Y 1.96 | Q 3 | E 4.77 | H 2.38
E14: W 1.69 | H 2.2 | C 1.15 | S 2.35 | A 1.55 | D 2.75 | R 2.43 | P 3.15 | Y 2.2 | N 2.11 | F 1.58 | V 1.25 | I 3.13 | L 1.5 | K 2.87 | T 1.93
S23: D 1.93 | W 3.71 | M 1.33 | K 2.79 | V 1.88 | T 1.89 | E 2.14 | I 1.89 | Y 1.9 | P 2.63 | N 2.48 | F 1.69 | Q 2.47 | L 2.66 | G 2.33 | C 1.4
S13: R 2.42 | H 2.88 | G 2.86 | I 2.13 | M 2.64 | N 2.49 | P 2.71 | A 1.42 | F 1.75 | D 3.58 | Q 1.12 | Y 2.09 | W 3.21 | K 2.34
R6: V 1.64 | M 2.56 | H 4.19 | N 2.51 | L 1.99 | S 2.42 | A 3.48 | W 1.99 | F 1.85 | K 2.1 | D 2.79 | T 1.76 | P 2.02 | I 1.84 | C 1.98 | E 3.25
L16: N 3.84 | H 2.85 | M 2.2 | E 3.67 | Q 2.92 | Y 2.19 | I 2.84 | S 3.17 | G 2.33 | P 2.38 | A 2.59 | T 2.85 | F 2.1
E22: T 3.06 | N 2.19 | F 3.11 | D 2.1 | C 1.52 | W 3.09 | M 2.6 | Q 2.57 | P 1.72 | S 2.56 | A 1 | Y 2.82 | R 3.35 | H 1.5 | K 1.48 | G 1.96
L24: Q 1.92 | T 2.2 | W 1.36 | Y 1.88 | A 2.59 | G 2.47 | F 1.89 | E 1.31 | P 2.85 | I 2.29 | N 3.01 | V 2.33 | D 2.48 | K 3.05 | M 2.28 | C 2.6
M20: F 1.88 | S 3.71 | W 1.72 | G 3.44 | R 3.42 | L 1.55 | N 2.74 | Y 2.64 | H 2.45 | E 2.17 | D 2.58 | P 3.25 | K 2.75 | T 2.76 | V 2.73 | I 2.09 | A 2.24
R7: V 2.46 | K 2.29 | G 2.38 | D 3.36 | T 2.16 | F 2.03 | A 2.61 | W 2.36 | H 2.34 | P 1.96 | E 2.8 | S 2.71 | Q 2.54 | M 2.15 | N 2.85 | Y 2.39
D17: R 2.27 | I 2.31 | N 2.75 | C 1.53 | Q 1.85 | E 2.07 | Y 2.83 | A 1.95 | G 2.25 | P 2.83 | K 1.25 | M 1.26 | T 1.92 | F 2 | L 2.07
I18: E 2.9 | Y 2.97 | V 3.12 | G 3.36 | W 1.91 | D 3.39 | T 2.62 | S 2.77 | R 2.84 | H 2.53 | N 2.41 | F 2.46 | A 2.12 | C 2
K5: G 2.59 | E 2.54 | V 2.41 | D 2.95 | T 2.51 | H 2.55 | C 2.38 | W 1.54 | M 2.06 | S 2.19 | R 2.53 | N 2.52 | A 2.34 | I 2.42
A4: R 2.03 | Y 1.82 | Q 2.57 | W 2.27 | N 2.07 | S 1.73 | V 2.21 | T 1.95 | P 2.11 | M 2.07
T19: E 1.43 | I 1.04 | N 3.39 | H 2.43 | R 1.81 | A 1.74 | L 1.66 | G 2.36 | W 1.61 | Q 1.93 | P 1.7 | D 2.37
A10: S 2.1 | N 2.67 | Y 1.63 | D 3.58 | L 2.55 | M 2.14 | G 3.48 | K 2.83 | C 2.18 | F 2.02 | H 2.31 | E 2.35 | V 1.58 | P 2 | T 2.52
L11: F 1.98 | S 1.94 | V 3.16 | G 4.11 | Q 2.27 | M 2.89 | T 1.71 | N 3.5 | C 2.2 | D 4.29 | H 3.62 | E 4.75 | Y 2.39 | P 2.75 | K 1.62
S8: D 2.65 | R 1.65 | Y 2.28 | M 1.59 | K 2.96 | P 2.01 | T 2.9 | I 2.03 | E 2.63 | G 2.53 | F 1.68 | W 2.25 | Q 2.33
W12: L 3.31 | M 3.51 | Q 4.46 | A 4.09 | N 4.79 | E 4.65 | D 5.38 | S 4.09 | F 3.26 | H 3.62 | I 3.5 | Y 2.78 | K 3.74 | T 4.19 | P 3.9 | V 3.65 | G 4.59 | C 4.32
K21: T 2.21 | H 2.25 | R 2.33 | S 2.73 | A 2.38 | F 1.17 | D 3.04 | Y 2.03 | I 2.06 | V 2.5 | N 3.67 | E 2.8

Variants of: B2
Test: as above
Details: c terminus: a fixed tail appended

Protein stability index of substitutions, site by site:
A2: I 1.59 | E 2.16 | L 3.74 | P 1.75 | C 1.8 | D 2.15 | N 2.2 | M 1.6 | K 2.12 | G 1.95 | H 2.04
I1: C 1.49 | R 2.1 | V 2.54 | D 2.06 | S 2.17 | T 2.64 | H 2.19 | K 2.18 | L 1.67 | F 2.7 | M 2.58 | Y 1.56 | W 1.36 | A 2.37 | P 2.6 | N 2.45 | G 2.4 | E 2.53 | Q 2.64
